In patent US20110135634A1, “METHODS OF INHIBITING INFECTION BY DIVERSE SUBTYPES OF DRUG-RESISTANT HIV-1” (priority 2007, published 2011):
Where “and” joins values, the source holds several entries; their conditions need not be identical. Equal entries are not always repeated. Where two headings read alike, the source gives them in different places.

Columns and labels:
[1] = target: T1, CCR5 on CEM.NKR-CCR5 cells (Homo sapiens, UniProt P51681); experiment: Competition binding: inhibition of PRO 140-PE binding; details: based on percent cells gated; 5 nM PRO 140-PE
T1 construct: host or cells: CEM.NKR-CCR5 (transduced human T cell leukemia line)
Protocol: Azide was added to block CCR5 internalization during the assay.

[2] = system: CCR5 chemokine signaling (L1.2-CCR5 cells); experiment: RANTES-induced calcium mobilization in L1.2-CCR5 cells versus HIV-1JR-FL replication in PBMC (FIG. 4); assay type: cell-based, human; details: PBMC cultures, similar results for MIP-1α and MIP-1β
Description: Similar results were obtained for MIP-1α and MIP-1β.

[3] = system: HIV-1 (CCR5-tropic virus); assay type: in vivo; details: for Mean log10 HIV RNA change: Day 10 post-treatment
Description: The efficacy data collected during the study were changes in viral load and CD4 counts over time. The safety data collected during the study were serious adverse events (SAEs)/adverse events (AEs) and changes in laboratory parameters (hematology, chemistry), physical exam, viral tropism and ECGs over time.
All patients were screened prior to the study for the presence of virus that utilizes only CCR5 as the entry coreceptor, i.e., CCR5-tropic virus.
The primary efficacy endpoint was the reduction in plasma HIV RNA level as measured by the Roche Amplicor™ Assay. The primary efficacy endpoint is the maximum change from baseline in viral load, defined as HIV-1 copies/ml, as measured by the Roche Amplicor™ Assay.

[4] = target: CCR5 (Homo sapiens, UniProt P51681); details: cited from earlier work
[5] = system: HIV-1JR-CSF; experiment: hu-PBL-SCID mouse model of HIV-1 infection (FIG. 5); assay type: in vivo, SCID mice; details: multiple doses after steady state viral levels
Protocol: SCID mice were reconstituted with normal human peripheral blood mononuclear cells and infected 2 weeks later with HIV-1JR-CSF. Multiple doses of PRO 140 were administered following attainment of steady state viral levels. Plasma viral loads pre- and post-injection are indicated.

[6] = system: reporter viruses pseudotyped with HIV-1JR-FL envelope (U87-CD4-CCR5 cells); experiment: microbe, parasite or virus in culture; assay type: cell-based
[7] = system: CCR5-tropic envelope-complemented luciferase-expressing HIV-1 reporter viruses; experiment: PhenoSense HIV Entry Assay on U87-CD4/CCR5 cells; assay type: cell-based; design: key to Mean FC / FC: fold change in drug susceptibility vs DUAL (92HT594) reference envelope
Description: Of these, 10 isolates were derived from viruses with high-level resistance to protease (PR) and/or reverse transcriptase (RT) inhibitors. Four additional isolates incorporated the major enfuvirtide-conferring mutations in an HIV-1JR-CSF envelope background. […] EC50 values for test isolates were divided by the EC50 for a well-characterized reference virus (HIV-192HT594) to yield fold-change (FC) values.
A PhenoSense™ HIV Entry assay (Whitcomb et al, Antimicrobial Agents and Chemotherapy, 51:566, 2007) has been developed by modifying the PhenoSense HIV assay and is illustrated schematically in FIGS. 21 and 22. The assay uses nucleic acid amplification (RT-PCR) to derive HIV envelope sequences (gp160) from HIV(+) patient plasma samples or other sources. Amplified envelope sequences were incorporated into a proprietary expression vector (pCXAS) using conventional cloning methods. Envelope expression vectors were prepared as large pools of sequences (>200) in order to assure that the diversity of sequences accurately represents the diversity of viral quasispecies in the specimen at the time of sample collection. Recombinant HIV-1 stocks expressing virus envelope proteins were prepared by co-transfecting HEK293 cells with a HIV-1 genomic viral vector and an appropriate envelope expression vector. The HIV-1 genomic vector is replication defective and contains a luciferase expression cassette within a deleted region of the HIV envelope gene. Following transfection, recombinant virus particles were harvested and used to inoculate two U87 cell lines expressing CD4 and the CCR5 or CXCR4 co-receptor (U87-CD4/CCR5 and U87-CD4/CXCR4 cells, respectively). […] Drug susceptibility was measured by comparing the amount of luciferase activity produced in the presence of entry inhibitors to the amount of luciferase activity produced in absence of entry inhibitors. Entry inhibitor activity was evaluated at ten serial drug concentrations. Data were analyzed by plotting percent inhibition of luciferase activity vs. log10 drug concentration.
The 31 viruses used in this study were CCR5-tropic and were selected from Monogram Biosciences' Specimen Library. The panel included four of each subtypes A, B, C, D, F, and G viruses and three subtype J virus (Table 17). Of the 31 viruses examined, 17 were wildtype (WT), 10 were resistant to protease (PR) and/or reverse transcriptase (RT) inhibitors and 4 were enfuvirtide-resistant site-directed mutants (SDMs). The enfuvirtide-resistant viruses included envelopes with amino acid substitutions at positions 36-38 (GIV motif) and 43 within heptad repeat 1 (HR-1) and were introduced by site-directed mutagenesis into gp41 transmembrane (TM) sequence of the JRCSF envelope, as shown in Table 16.
DUAL (92HT594) is an envelope expression vector derived from a drug-naive reference virus that can efficiently infect cells expressing both the CD4 receptor and the CCR5 or CXCR4 co-receptor molecules on the cell surface. The DUAL envelope control was used to determine the fold changes in drug susceptibility of samples evaluated on U87-CD4/CCR5 cells. The DUAL control was also tested in each assay batch to evaluate and monitor assay performance over time.
JRCSF is an envelope expression vector derived from a drug-naive reference virus that can efficiently infect cells expressing both the CD4 receptor and the CCR5 co-receptor molecules on the cell surface.
Susceptibility data were analyzed by plotting percent inhibition of luciferase activity vs. log10 drug concentration.

[8] = JRFL, labelled 1st inhibitor with 2nd inhibitor PRO 140 (equimolar; 1:10 PRO 140 to nevirapine or zidovudine)

Chain of CCR5 (P51681 whole entry): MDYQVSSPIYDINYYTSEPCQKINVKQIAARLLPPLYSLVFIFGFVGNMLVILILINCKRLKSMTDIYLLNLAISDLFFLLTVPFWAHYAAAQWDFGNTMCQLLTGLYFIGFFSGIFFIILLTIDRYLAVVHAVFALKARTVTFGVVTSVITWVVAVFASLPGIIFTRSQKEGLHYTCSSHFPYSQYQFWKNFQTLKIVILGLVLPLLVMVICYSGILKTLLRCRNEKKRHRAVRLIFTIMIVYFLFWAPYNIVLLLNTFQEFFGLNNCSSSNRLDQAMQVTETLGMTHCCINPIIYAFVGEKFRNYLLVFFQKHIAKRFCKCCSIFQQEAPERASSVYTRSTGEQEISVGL
T1 sequence (P51681 whole entry): as above

B1: PRO 140: humanized IgG4,κ anti-CCR5 mAb being developed for HIV-1 therapy (antibody, chains of the INN, looked up, V domains shown)
VH: EVQLVESGGGLVKPGGSLRLSCAASGYTFSNYWIGWVRQAPGKGLEWIGDIYPGGNYIRNNEKFKDKTTLSADTSKNTAYLQMNSLKTEDTAVYYCGSSFGSNYVFAWFTYWGQGTLVTVSS
VL: DIVMTQSPLSLPVTPGEPASISCRSSQRLLSSYGHTYLHWYLQKPGQSPQLLIYEVSNRFSGVPDRFSGSGSGTDFTLKISRVEAEDVGVYYCSQSTHVPLTFGQGTKVEIK
- EC90 [1]: 17 nM
- effect on RANTES-induced calcium mobilization and on HIV-1JR-FL replication [2]: blocks HIV-1 but not chemokine signaling
- individual reductions of viral load ([3]; 2.0 mg/kg and 5.0 mg/kg dose levels): up to 2.5 log10 and ≤ 99.7%
- AUC viral load ([3]; 5 mg/kg): significantly decreased
- Maximum decrease of viral load at any time ([3]; 5 mg/kg): −1.8 log
- Patients with <400 copies/mL (anytime) ([3]; 5 mg/kg): 4/10
- Patients with >1 log decrease (anytime) ([3]; 5 mg/kg): 10/10
- time of return of viral load to baseline ([3]; 5.0 mg/kg cohort): approximately 30 days
- time to suppression of mean viral load by 1.0 log10 (90%) ([3]; 5.0 mg/kg cohort): within four days
- time viral load persisted at or below the 1.0 log10 level of reduction ([3]; 5.0 mg/kg cohort): two to three weeks
- mean increase in CD4+ lymphocytes ([3]; 5 mg/kg, day 8): 129 cells/μL
- Viral load decrease ([3]; 5 mg/kg, day 22): −0.73
- Mean log10 HIV RNA change ([3]; 0.5 mg/kg): −0.37 log10
- Mean log10 HIV RNA change ([3]; 2.0 mg/kg): −1.04 log10
- Mean log10 HIV RNA change ([3]; 5.0 mg/kg): −1.70 log10
- response rate (percentage of patients with a ≧1 log10 decrease in HIV RNA at any time) ([3]; highest dose cohort): 100%
- Block Natural Activity of CCR5 ([4]; Table 2 summary): No
- Development of Resistance In Vitro ([4]; Table 2 summary): None at 40 weeks
- Viral Cross-Resistance ([4]; Table 2 summary): Limited
- tolerability [4]: No Toxicity
- control of viral replication (plasma viral loads) [5]: prolonged control of viral replication
- IC50 ([6]; HIV-1 envelope JRFL, 1st inhibitor alone, read-out: IC50): 2.2 nM
- IC90 ([6]; HIV-1 envelope JRFL, 1st inhibitor alone, read-out: IC90): 28 nM
- CI50 [6, 8]: 1.2 ± 0.32
- CI90 [6, 8]: 0.90 ± 0.15
- median IC50 ([7]; 27 viruses representing different genetic subtypes): 0.44 µg/mL
- range of FC values ([7]; 31 test viruses, relative to HIV-1 92HT594): 0.28-4.1
- mean EC50 ([7]; all 31 test viruses): 0.50 ± 0.27 µg/mL
- Mean FC ([7]; all 31 test viruses, relative to reference virus HIV-1 92HT594): 1.5±0.8
- FC ([7]; envelopes from PR/RT-resistant viruses): 1.4±1.0
- mean IC50 ([7]; four enfuvirtide-resistant SDMs): 0.82 µg/mL
- IC50, Average ([7]; panel of 31 viruses): 0.5096 µg/mL
- IC50, Max ([7]; panel of 31 viruses): 1.4329 µg/mL
- IC50, Median ([7]; panel of 31 viruses): 0.4418 µg/mL
- IC50, Min ([7]; panel of 31 viruses): 0.0955 µg/mL
- Mean FC ([7]; subtype A): 1.0±0.4
- Mean FC ([7]; subtype B): 1.5±0.2
- Mean FC ([7]; subtype C): 0.94±0.5
- Mean FC ([7]; subtype D): 1.4±0.6
- Mean FC ([7]; subtype F): 1.5±0.7
- Mean FC ([7]; subtype G): 1.8±1.6
- Mean FC ([7]; subtype J): 1.2±0.4
